# Test results from publication PMC5408348, “The biochemical properties of the two Arabidopsis thaliana isochorismate synthases” (Biochemical Journal, 2017).
# B1: AtICS1 (His6-AtICS1, ICS1) (Arabidopsis thaliana) (protein)
# chain: MNGCDGDFKTPLGTVETRTMTAVLSPAAATERLISAVSELKSQPPSFSSGVVRLQVPIDQQIGAIDWLQAQNEIQPRCFFSRRSDVGRPDLLLDLANENGNGNGNGTVSSDRNLVSVAGIGSAVFFRDLDPFSHDDWRSIRRFLSSTSPLIRAYGGMRFDPNGKIAVEWEPFGAFYFSVPQVEFNEFGGSSMLAATIAWDDELSWTLENAIEALQETMLQVSSVVMKLRNRSLGVSVLSKNHVPTKGAYFPAVEKALEMINQKSSPLNKVVLARNSRIITDTDIDPIAWLAQLQREGHDAYQFCLQPPGAPAFIGNTPERLFQRTQLGVCSEALAATRPRAASSARDMEIERDLLTSPKDDLEFSIVRENIREKLNGICDRVVVKPQKTVRKLARVQHLYSQLAGRLTKEDDEYKILAALHPTPAVCGLPAEEARLLIKEIESFDRGMYAGPIGFFGGEESEFAVGIRSALVEKGLGALIYAGTGIVAGSDPSSEWNELDLKISQFTKSIEYEATTSLQAIN
# notes: transit peptide removed (forward primer encodes MNGCDG start), N-terminal His6 tag from pET-28a TEV, no tag cleavage described; E. coli Rosetta DE3 pLysS; ~60 kDa; monomer
# B2: AtICS2 (His6-AtICS2, ICS2) (Arabidopsis thaliana) (protein)
# chain: MNGCEADHKAPLGTVETRTLSTVPSPAAATERLITAVSDLKSQPPPFSSGIVRLQVPIEQKIGAIDWLHAQNEILPRSFFSRRSDSGRPDLLQDFSSDNGSSDHNPVSVAGIGSAVFFRDLDPFSHDDWRSIRRFLSSKSPLIRAYGGLRFDPTGKIAVEWEHFGSFYFTVPQVEFDEFGGSSMLAATVAWDNELSWTLENAIEALQETMLQVSSVIMRLRRESLGVIVVSKNHVPSEGAYYPAVNNALEIIKDKHSPLSKVVLARSSRIITDTDIDPIAWLARLQCEGQDAYQFCLQPPGAPAFIGNTPERLFHRKHLGVCSEALAATRPRGDSKVREMEIERDLLTSPKDDLEFSIVRENIREKLKTICDRVVVKPHKSVRKLARVQHLYSQLAGQLKREDDEFNILTALHPTPAVCGCPVEEARLLIKQIESFDRGMYAGPIGFFGGGESEFSVGIRSALVEKGLGALIYAGTGIVSGSNPSSEWNELELKISQFTKSLEHESALQPIN
# notes: transit peptide removed (forward primer encodes MNGCEA start), N-terminal His6 tag from pET-28a TEV, no tag cleavage described; E. coli Rosetta DE3 pLysS; ~60 kDa; monomer
# Tests used:
# [1] = substrate: C=C(O[C@@H]1C=C(C(=O)O)C=C[C@H]1O)C(=O)O; assay: coupled fluorimetric assay with PchB (salicylate formation); format: biochemical, Arabidopsis thaliana; details: 100 mM Tris-HCl pH 7.7, 10 mM MgCl2, 30°C, 1 µM His6-PchB, 100 nM enzyme
# Description: coupled fluorimetric assay with PchB (salicylate formation) on AtICS1 (His6-AtICS1, ICS1)
# [2] = substrate: C=C(O[C@@H]1C=C(C(=O)O)C=C[C@H]1O)C(=O)O; assay: as above; format: biochemical, Arabidopsis thaliana; details: 100 mM Tris-HCl pH 7.7, 10 mM MgCl2, 30°C, 1 µM His6-PchB, 100 nM enzyme; remark: listed apart in the source
# Description: coupled fluorimetric assay with PchB (salicylate formation) on AtICS2 (His6-AtICS2, ICS2)
protein,measurement,setting,value
B1,Km,[1],34.3 ± 3.7 µM
same,kcat,[1],0.635 ± 0.025 s⁻¹
same,kcat/Km,[1],18500 ± 217 M⁻¹ s⁻¹
B2,Km,[2],28.8 ± 6.9 µM
same,kcat,[2],0.283 ± 0.02 s⁻¹
same,kcat/Km,[2],9830 ± 1030 M⁻¹ s⁻¹
